In this assay the target is MBP-III2 (rat) (UniProt P04937). The assay is described as follows: ELISA.
Chain of UniProt P04937 (P04937 701-808): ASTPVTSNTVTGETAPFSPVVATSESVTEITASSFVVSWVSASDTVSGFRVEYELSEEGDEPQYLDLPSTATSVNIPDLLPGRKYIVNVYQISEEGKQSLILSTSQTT

Usually Kd stands for the free concentration of one partner at which half of the binding sites on the other are occupied at equilibrium, for simple one-to-one binding. “rat plasma fibronectin (from UniProt P04937 25-2477) (natural protein)” registered a Kd of 28 nM.

(Values after publication PMC2196193.)
